Earlier results on two substances are cited in publication PMC4026351.

Like-named read-outs stand apart in the source and are kept apart here.

For data set [1], the target named is BtuB (Escherichia coli) (UniProt P06129).
The target is the same in data set [2]. The source holds these as a separate data set.

Chain of UniProt P06129 (P06129 21-614): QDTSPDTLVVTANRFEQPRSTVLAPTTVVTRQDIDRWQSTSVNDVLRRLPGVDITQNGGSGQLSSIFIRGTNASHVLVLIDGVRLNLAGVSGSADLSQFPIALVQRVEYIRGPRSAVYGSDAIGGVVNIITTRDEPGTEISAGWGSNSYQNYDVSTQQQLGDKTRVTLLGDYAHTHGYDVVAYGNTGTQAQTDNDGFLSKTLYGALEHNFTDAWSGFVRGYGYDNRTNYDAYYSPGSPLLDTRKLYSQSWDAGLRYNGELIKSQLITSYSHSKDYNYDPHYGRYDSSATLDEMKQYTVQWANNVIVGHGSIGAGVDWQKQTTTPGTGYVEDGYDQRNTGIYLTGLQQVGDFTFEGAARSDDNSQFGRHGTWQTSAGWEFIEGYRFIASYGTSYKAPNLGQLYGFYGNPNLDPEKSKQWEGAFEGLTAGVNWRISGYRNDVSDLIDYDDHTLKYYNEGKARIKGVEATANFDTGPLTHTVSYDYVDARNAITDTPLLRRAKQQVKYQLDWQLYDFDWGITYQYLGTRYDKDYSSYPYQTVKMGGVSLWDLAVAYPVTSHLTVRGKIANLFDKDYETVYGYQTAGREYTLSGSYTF

As to “colicin E2 R-domain (from UniProt P04419)”, the Kd (in general, the free concentration of one partner at which half of the binding sites on the other are occupied at equilibrium, for simple one-to-one binding) with BtuB (Escherichia coli) [1] was 1.5 nM.
On to “colicin E3 R-domain (from UniProt P00646)”, for which the dissociation constant (Kd) with BtuB (Escherichia coli) [2] was 1.5 nM.
